Test results taken from US20220306744A1 (CRESCENDO BIOLOGICS, published 2022).

Tests used:
[1] = target: T1, human PD-1 expressed on cells (CHO TREX human PD1 cell line, full-length human PD-1 sequence) (human, UniProt Q15116 21-288); test: worded summary of the screens
T1 construct: Also used for human PD-1 on Jurkat reporter cells, on PathHunter cells and on PHA-stimulated human CD4+ T cells; also called CHO human PD1 cells; CHO human PD-1 cells

[2] = target: T1, human PD-1 expressed on cells (CHO TREX …); test: cell-based or functional assay
[3] = target: T1, human PD-1 expressed on cells (CHO TREX …); test: cell-based or functional assay; remark: listed apart in the source
[4] = target: T2, recombinant human PD-1 Fc chimera (human, UniProt Q15116 25-167); test: SPR Biacore T200, single cycle kinetics, human PD-1-hu Fc amine coupled to CM5, 1:1 model
T2 construct: Bought protein (R&D 1086-PD in the HTRF assay); also called human PD-1-hu Fc; huPD-1Fc; not shown: human Fc
T2 sequence (Q15116 25-167 limits assumed, stated change not applied): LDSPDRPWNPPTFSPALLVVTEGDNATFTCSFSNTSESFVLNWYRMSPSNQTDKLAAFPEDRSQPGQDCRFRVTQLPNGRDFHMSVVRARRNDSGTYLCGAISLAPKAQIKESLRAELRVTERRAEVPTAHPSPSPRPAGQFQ
Description: Binding kinetics of certain humabodies binding to human PD-1-hu Fc were measured by surface plasmon resonance (SPR) technology using Biacore T200 instrument (GE Healthcare). Recombinant human PD-1-hu Fc was immobilized by standard amine coupling to CM5 sensors chip (GE Healthcare) using 0.1 mg/ml solution of antigen in 10 mM sodium acetate at pH 5.5. For the reference flow cell, a blank immobilisation was carried out. Single cycle kinetics assays were used to study the interaction, a five point, three-fold dilution series of each Humabody® VH was made with a top concentration of 30 nM. The binding kinetics were followed by flowing the Humabody® VH over the chip surface in HBS EP+ buffer at a flow rate of 30 μl/min. The contact time for each of the association steps was 180 seconds and the dissociation step was varied between 1200-3600 seconds. The data was fitted to a 1:1 binding model after double reference subtraction using the Biacore T200 Evaluation software.

T1 sequence (Q15116 21-288): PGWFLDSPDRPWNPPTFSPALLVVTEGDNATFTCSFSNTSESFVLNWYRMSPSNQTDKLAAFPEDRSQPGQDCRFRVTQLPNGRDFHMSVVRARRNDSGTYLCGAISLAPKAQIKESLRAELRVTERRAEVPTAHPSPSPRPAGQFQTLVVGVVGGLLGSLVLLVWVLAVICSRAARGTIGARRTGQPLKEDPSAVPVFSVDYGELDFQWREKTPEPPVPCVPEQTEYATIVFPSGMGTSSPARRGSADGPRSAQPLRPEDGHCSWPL

binding result [1] | EC50 (M), NFAT-Luciferase reporter gene assay [3] [M] | Binder | further results
binds |  | 1.25b (VHH) VHH: QVTLKESGGGLVKPGGSLRLSCAASGFTFSDYYMSWFRQAPGKEREWISFISSSGSTTYYADSVKGRFTISRDNAKNSLYLQMNSLRAEDTAVYYCAREAPLRLGESPHDAFDFWGQGTMVTVSS | 
binds |  | 1.26b (VHH) VHH: QVTLKESGGGLVKPGGSLRLSCAASGFTFSDNSMSWIRQAPGKGLEWVSYISSSGSTIYYADSVKGRFTISRDNAKNSLYLQMNTLRAEDTAVYYCAKEAPLRLGESPHDAFDIWGQGTMVTVSS | 
 |  | 1.77b-4GS-1.77b (other) EVQLVESGGGLVKPGGSLRLSCAASGFTFSDSSMTWMRQAPGKGLEWVSYISSGGGVKFYTDSVKGRFTISRDNAKNSLYLQMNSLRAEDTAVYYCAREAPLRLGESPHDAFDISGQGTMVTVSSGGGGSGGGGSGGGGSGGGGSEVQLVESGGGLVKPGGSLRLSCAASGFTFSDSSMTWMRQAPGKGLEWVSYISSGGGVKFYTDSVKGRFTISRDNAKNSLYLQMNSLRAEDTAVYYCAREAPLRLGESPHDAFDISGQGTMVTVSS | EC50 uM, PathHunter Checkpoint assay (PD-1 signalling) [2]: 0.0002 µM; Max. % increase in response over baseline, PathHunter Checkpoint assay [2]: 48.5%
binds |  | 1.40b (VHH) VHH: EVQLVESGGGLVKPGGSLRLSCAASGFTFSDSSMSWIRQAPGRGLEWISYISSGGGIIYYTDSVKGRFTISRDNAKNSLYLQMNSLRVEDTAVYYCAKEAPLRLGESPHDAFDIWGHGTMVTVSS | 
 | 7.2e-09 | 1.1b-2GS-1.1a (other, Biparatopic VH-linker-VH; His tag implied by the assays; not in the chain) QVQLVESGGGLVKPGGSLRLSCAASGFTFSDYTMTWMRQAPGKGLEWVSYISTGGTIKYYTDSVKGRFTISRDNAKNSLYLQMNSLRADDTAVYYCAREAPLRLGESPHDAFDIWGQGTMVTVSSGGGGSGGGGSEVQLLESGGGSVQPGRSLRLSCAASGFTFDDHAMHWVRQAPGKGLEWVSGISWNSGSMGYADSVKDRFTISRDNAKSSLYLQMNSLRAEDTALYYCVREKGPGLTGSTADYYGLDVWGQGTMVTVSS | Kd [4]: 0.0346 nM; koff [4]: 1.08e-05 s⁻¹; kon [4]: 313000 M⁻¹ s⁻¹
 | 1e-09 | 1.92b-4GS-1.99a (other) EVQLVESGGGLVKPGGSLRLSCAASGFTFSDESMTWMRQAPGKGLEWVSYISSGGGVKFYADSVKGRFTISRDNAKNSLYLQMNSLRAEDTAVYYCAREAPLRLGESPHDAFDISGQGTMVTVSSGGGGSGGGGSGGGGSGGGGSEVQLVESGGGVVRPGGSLRLSCAASGFTFDDYAMSWVRQAPGKGLEWVSGITWNGGSTGYADSVKGRFTISRDNAKNSLYLQMNSLRAEDTALYYCVRDKYSYAWSYDGFDIWGQGTMVTVSS | 
 | 1.2e-09 | 1.92b-4GS-1.103a (other) EVQLVESGGGLVKPGGSLRLSCAASGFTFSDESMTWMRQAPGKGLEWVSYISSGGGVKFYADSVKGRFTISRDNAKNSLYLQMNSLRAEDTAVYYCAREAPLRLGESPHDAFDISGQGTMVTVSSGGGGSGGGGSGGGGSGGGGSEVQLVESGGGVVRPGGSLRLSCAASGFTFDDYAMSWVRQAPGKGLEWVSGITWNGGSTGYADSVKDRFTISRDNAKNSLYLQMNSLRAEDTALYYCVRDKYSYAWSYDDFDIWGQGTMVTVSS | 
 | 3.9e-09 | 1.1a-4GS-1.57b (other) EVQLLESGGGSVQPGRSLRLSCAASGFTFDDHAMHWVRQAPGKGLEWVSGISWNSGSMGYADSVKDRFTISRDNAKSSLYLQMNSLRAEDTALYYCVREKGPGLTGSTADYYGLDVWGQGTMVTVSSGGGGSGGGGSGGGGSGGGGSQVQLVESGGGLVKPGGSLRLSCAASGFTFSDNSMTWMRQAPGKGLEWVSYISSGGGVIFYADSVKGRFTISRDNAKNSLYLQMNSLRADDTAVYYCAREAPLRLGESPHDAFDISGQGTMVTVSS | 
binds |  | 1.28b (VHH) VHH: QITLKESGGGLVKPGGSLRLSCAASGFTFSDYDMYWIRQAPGKGLEWVSYISRGGSVTYYADSVKGRFTISRDNAKNALYLQMNSLRAEDMAVYFCATEAPLRLGETPHAAFDIWGQGTMVTVSS | 
binds |  | 1.33b (VHH) VHH: QITLKESGGGLVKPGGSLRLSCAASGFTFSDYDMYWVRQAPGKGLEWVSYISRGGSVTYYADSVKGRFTISRDNAKNALYLQMNSLRAEDMAVYFCATEAPLRLGETPHAAFDIWGQGTMVTVSS | 
 | 2.1e-09 | 1.77b-2GS-1.21a (other) EVQLVESGGGLVKPGGSLRLSCAASGFTFSDSSMTWMRQAPGKGLEWVSYISSGGGVKFYTDSVKGRFTISRDNAKNSLYLQMNSLRAEDTAVYYCAREAPLRLGESPHDAFDISGQGTMVTVSSGGGGSGGGGSEVQLVESGGGLVQPGRSLRLSCAASGFTFDDYAMHWVRQAPGKDLEWVSGISWNGGSMGYAASVKGRFTISRDNAKNSLYLQMNSLRAEDTALYYCVREKGPGLTGSTADYYGLDVWGQGTMVTVSS | 
 | 2.3e-09 | 1.77b-1GS-1.21a (other) EVQLVESGGGLVKPGGSLRLSCAASGFTFSDSSMTWMRQAPGKGLEWVSYISSGGGVKFYTDSVKGRFTISRDNAKNSLYLQMNSLRAEDTAVYYCAREAPLRLGESPHDAFDISGQGTMVTVSSGGGGSEVQLVESGGGLVQPGRSLRLSCAASGFTFDDYAMHWVRQAPGKDLEWVSGISWNGGSMGYAASVKGRFTISRDNAKNSLYLQMNSLRAEDTALYYCVREKGPGLTGSTADYYGLDVWGQGTMVTVSS | EC50 uM, PathHunter Checkpoint assay (PD-1 signalling) [2]: 0.00059 µM; Max. % increase in response over baseline, PathHunter Checkpoint assay [2]: 1330%
 | 3.2e-09 | 1.77b-4GS-1.21a (other) EVQLVESGGGLVKPGGSLRLSCAASGFTFSDSSMTWMRQAPGKGLEWVSYISSGGGVKFYTDSVKGRFTISRDNAKNSLYLQMNSLRAEDTAVYYCAREAPLRLGESPHDAFDISGQGTMVTVSSGGGGSGGGGSGGGGSGGGGSEVQLVESGGGLVQPGRSLRLSCAASGFTFDDYAMHWVRQAPGKDLEWVSGISWNGGSMGYAASVKGRFTISRDNAKNSLYLQMNSLRAEDTALYYCVREKGPGLTGSTADYYGLDVWGQGTMVTVSS | EC50 uM, PathHunter Checkpoint assay (PD-1 signalling) [2]: 0.0005 µM; Max. % increase in response over baseline, PathHunter Checkpoint assay [2]: 253%
 | 3e-09 | 1.64b-4GS-1.1a (other) EVQLVESGGGLVKPGGSLRLSCAASGFTFSDSSMTWMRQAPGKGLEWVSYISSGGGVKFYADSVKGRFTISRDNAKNSLYLQMNSLRADDTAVYYCAREAPLRLGESPHDAFDISGQGTMVTVSSGGGGSGGGGSGGGGSGGGGSEVQLLESGGGSVQPGRSLRLSCAASGFTFDDHAMHWVRQAPGKGLEWVSGISWNSGSMGYADSVKDRFTISRDNAKSSLYLQMNSLRAEDTALYYCVREKGPGLTGSTADYYGLDVWGQGTMVTVSS | 
